Data: paper PMC3899335, “ParABS System in Chromosome Partitioning in the Bacterium Myxococcus xanthus”

Molecular target: T1, ParB (Myxococcus xanthus DK1050, UniProt Q1CVJ4 1-296)
T1 sequence: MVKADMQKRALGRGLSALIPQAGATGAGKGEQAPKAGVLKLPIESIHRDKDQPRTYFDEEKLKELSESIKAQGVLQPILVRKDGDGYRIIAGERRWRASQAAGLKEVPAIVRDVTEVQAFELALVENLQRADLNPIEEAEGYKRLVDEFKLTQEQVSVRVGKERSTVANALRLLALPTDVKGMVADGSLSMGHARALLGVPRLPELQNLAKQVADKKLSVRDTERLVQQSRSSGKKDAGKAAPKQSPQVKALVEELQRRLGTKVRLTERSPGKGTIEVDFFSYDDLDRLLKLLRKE
Test: EMSA (polyacrylamide); single retarded band up to highest ParB; 40 mM Na-phosphate pH 8, 20 mM NaCl, 7% glycerol, 20 ug/ml BSA, 100 ug/ml sheared salmon sperm DNA, 30 C (30 min agarose, 1 h polyacrylamide); gels run at 4 C
Conditions: protein: recombinant; tags: intein-chitin tag (pTYB12) removed by on-column DTT cleavage; chain copies: 2; label: 32P 5' end; blunt

B1: parS 50 bp consensus (dsDNA)
DNA 1: ACTCACTCATGGCCTCCGTGTTCCACGTGGAACGAAGGATGACTCGAGCA
DNA 2: TGCTCGAGTCATCCTTCGTTCCACGTGGAACACGGAGGCCATGAGTGAGT
B1: binds.
